Measurements reported in publication PMC3375900.

Molecular target: Hrs (rat (endogenous in rat brain cytosol)) (UniProt Q9JJ50)
Assay: co-IP

Sequence of UniProt Q9JJ50 (Q9JJ50 whole entry): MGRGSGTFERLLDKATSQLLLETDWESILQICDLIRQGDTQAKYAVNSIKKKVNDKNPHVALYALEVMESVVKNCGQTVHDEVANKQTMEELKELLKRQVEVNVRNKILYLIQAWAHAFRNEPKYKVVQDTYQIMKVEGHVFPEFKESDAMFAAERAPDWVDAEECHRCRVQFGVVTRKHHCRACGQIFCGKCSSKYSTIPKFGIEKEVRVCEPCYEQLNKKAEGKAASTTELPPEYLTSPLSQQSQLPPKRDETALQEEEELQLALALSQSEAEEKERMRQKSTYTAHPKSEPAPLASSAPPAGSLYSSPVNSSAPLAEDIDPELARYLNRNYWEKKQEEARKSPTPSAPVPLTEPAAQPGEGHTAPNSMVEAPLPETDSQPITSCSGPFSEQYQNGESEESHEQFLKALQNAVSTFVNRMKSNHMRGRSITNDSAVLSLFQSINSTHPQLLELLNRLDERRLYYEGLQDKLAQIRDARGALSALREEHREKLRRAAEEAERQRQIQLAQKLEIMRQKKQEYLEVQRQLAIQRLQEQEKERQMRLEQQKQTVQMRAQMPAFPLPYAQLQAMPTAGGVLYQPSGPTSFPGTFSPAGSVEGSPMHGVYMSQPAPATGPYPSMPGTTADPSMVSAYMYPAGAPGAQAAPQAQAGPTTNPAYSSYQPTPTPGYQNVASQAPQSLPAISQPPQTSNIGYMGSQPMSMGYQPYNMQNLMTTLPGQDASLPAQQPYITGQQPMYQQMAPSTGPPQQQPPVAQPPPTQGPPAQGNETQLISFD

percent of STAM remaining in the cytosol after immunodepletion of Hrs: 16.5%
Substance: signal-transducing adaptor molecule (STAM) (from UniProt Q5XHY7 1-523) (natural protein)
